± gives the uncertainty stated by the source.
Experiment: self-splicing fitness, log relative to wild type (ln ratio); higher = more splicing; Tetrahymena group I intron in knt gene, E. coli kanamycin selection, DiMSum; sequences stand for … in CUCUCU…GGAGGGAAAAGUUAUCAGGCAUGCACCUGGUAGCUAGUCUUUAAACCAAUAGAUUGCAUCGGUUUAAAAGGCAAGACCGUCAAAUUGCGGGAAAGGGGUCAACAGCCGUUCAGUACCAAGUCUCAGGGGAAACUUUGAGAUGGCCUUGCAAAGGGUAUGGUAAUAAGCUGACGGACAUGGUCCUAACCACGCAGCCAAGUCCUAAGUCAACAGAUCUUCUGUUGAUAUGGAUGCAGUUCACAGACUAAAUGUCGGUCGGGGAAGAUGUAUUCUUCUCAUAAGAUAUAGUCGGACCUCUCCUUAAUGGGAGCUAGCGGAUGAAGUGAUGCAACACUGGAGCCGCUGGGAACUAAUUUGUAUGCGAAAGUAUAUUGAUUAGUUUUGGAGUACUCGUGGUCG
How it was run: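 Six replicate transformations of E. coli BL21(DE3) with a pET-22b(+) library were grown overnight at 37°C or 30°C. The library randomised all eight P1ex-region intron nucleotides, the intron lying in the knt kanamycin-resistance gene, and plates were LB agar with or without 25 μg/mL kanamycin plus 100 μg/mL carbenicillin, 50 μM IPTG and 0.2% rhamnose. Pooled colonies were amplicon-sequenced on an Illumina HiSeq 2500, and fitness is the DiMSum error-weighted combination of wild-type-normalised replicate fold changes, kanamycin versus none.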

Sequence | self-splicing fitness (ln) (30 °C) | self-splicing fitness (ln) (37 °C)
CCAAAGCAAUAUUACGGCCU | -3.59 ± 0.18 | -3.33 ± 0.37
UCGGAGCAAUAUUACGCGAG | -3.29 ± 0.45 | -1.64 ± 0.27
GAUUAGCAAUAUUACGGACC | -0.347 ± 0.18 | -0.379 ± 0.16
GCGGAGCAAUAUUACGUAAU | -1.52 ± 0.15 | -1.73 ± 0.24
CUUGAGCAAUAUUACGCAUG | -2.7 ± 0.21 | -1.3 ± 0.44
GAACAGCAAUAUUACGUGCG | -0.551 ± 0.065 | -0.41 ± 0.074
AGUAAGCAAUAUUACGUACU | -2.29 ± 0.12 | -1.76 ± 0.18
CAUGAGCAAUAUUACGUUGG | -2.69 ± 0.17 | -1.81 ± 0.15
ACGGAGCAAUAUUACGUUAU | – | -2.94 ± 0.23
ACGGAGCAAUAUUACGCGGC | -3.42 ± 0.44 | –
AAGAAGCAAUAUUACGGCCC | -0.651 ± 0.13 | -0.518 ± 0.16
UGUGAGCAAUAUUACGUUGA | -2.82 ± 0.14 | -2.11 ± 0.15
GAUUAGCAAUAUUACGAGUU | -2.53 ± 0.14 | -0.583 ± 0.11
CCCGAGCAAUAUUACGAGCU | -3.75 ± 0.17 | -2.69 ± 0.21
CGUUAGCAAUAUUACGACCC | -2.92 ± 0.43 | –
GAGAAGCAAUAUUACGUGUC | -3.95 ± 0.27 | -2.1 ± 0.33
ACCGAGCAAUAUUACGAUAG | -3.12 ± 0.21 | -2.42 ± 0.24
CUCGAGCAAUAUUACGCAAU | -3.57 ± 0.2 | –
GAAAAGCAAUAUUACGUGGU | -3.58 ± 0.17 | -2.79 ± 0.2
GCCUAGCAAUAUUACGCAUG | -4.28 ± 0.36 | -1.67 ± 0.15
ACUAAGCAAUAUUACGGAUU | -2.79 ± 0.14 | -1.1 ± 0.11
GCGGAGCAAUAUUACGCUUC | -2.09 ± 0.38 | –
GGCAAGCAAUAUUACGGCGC | -0.3 ± 0.082 | -0.265 ± 0.12
CGCCAGCAAUAUUACGUGCG | -3.99 ± 0.26 | -2.33 ± 0.22
CCUUAGCAAUAUUACGAGCU | -4 ± 0.33 | -2.74 ± 0.29

Sequence | self-splicing fitness (ln) (30 °C) | self-splicing fitness (ln) (37 °C)
GUUUAGCAAUAUUACGCCGG | -2.37 ± 0.45 | –
AUUAAGCAAUAUUACGGCUG | -0.405 ± 0.083 | -0.233 ± 0.1
AACGAGCAAUAUUACGCAGC | -2.29 ± 0.29 | –
CGGCAGCAAUAUUACGCUUC | – | -1.56 ± 0.29
UUUCAGCAAUAUUACGUCUA | -0.33 ± 0.077 | 0.101 ± 0.079
ACAUAGCAAUAUUACGUACU | -0.24 ± 0.077 | 0.46 ± 0.12
ACAUAGCAAUAUUACGGGAG | -2.13 ± 0.11 | -1.52 ± 0.11
CCUGAGCAAUAUUACGCGCG | -3.05 ± 0.21 | -3.29 ± 0.26
AUUGAGCAAUAUUACGUGGA | -2.87 ± 0.26 | -1.61 ± 0.21
UUAUAGCAAUAUUACGACAA | -0.403 ± 0.12 | -0.279 ± 0.11
GUGCAGCAAUAUUACGUCAU | -2.23 ± 0.089 | -1.95 ± 0.1
GAUAAGCAAUAUUACGUAGA | -3.26 ± 0.22 | -0.548 ± 0.14
UGUAAGCAAUAUUACGGCCU | -1.08 ± 0.1 | -0.452 ± 0.12
AGGGAGCAAUAUUACGAAAG | -1.91 ± 0.14 | -2.14 ± 0.24
GAGCAGCAAUAUUACGGAGU | -3.32 ± 0.26 | -3.07 ± 0.4
UUCUAGCAAUAUUACGGACA | -0.456 ± 0.097 | 0.211 ± 0.12
AUCCAGCAAUAUUACGAAUG | -1.94 ± 0.12 | -1.36 ± 0.11
UAGAAGCAAUAUUACGCAUC | -3 ± 0.23 | -3.37 ± 0.31
GCCAAGCAAUAUUACGUCUU | -3.28 ± 0.2 | -2.38 ± 0.16
CAAGAGCAAUAUUACGCUUC | -3.61 ± 0.37 | -2.23 ± 0.43
ACUCAGCAAUAUUACGUUCA | -1.36 ± 0.085 | -0.842 ± 0.11
UCGGAGCAAUAUUACGAGUU | -2.79 ± 0.33 | –
AAGGAGCAAUAUUACGAUCA | -1.18 ± 0.36 | –
UACUAGCAAUAUUACGCCUU | -1.93 ± 0.15 | -0.434 ± 0.13
GUGAAGCAAUAUUACGGAUG | -0.987 ± 0.07 | -0.586 ± 0.098

Sequence | self-splicing fitness (ln) (30 °C) | self-splicing fitness (ln) (37 °C)
GCCGAGCAAUAUUACGAGAU | -2.65 ± 0.19 | -1.66 ± 0.2
CGCAAGCAAUAUUACGAGAA | – | -2.03 ± 0.42
CAGUAGCAAUAUUACGACUC | -0.076 ± 0.18 | 0.539 ± 0.28
GUACAGCAAUAUUACGACGA | -1.54 ± 0.14 | -1.07 ± 0.12
UAACAGCAAUAUUACGUUGA | -2.95 ± 0.14 | -1.34 ± 0.1
CCAGAGCAAUAUUACGCAUA | -3.74 ± 0.23 | -2.48 ± 0.24
CUAGAGCAAUAUUACGGCCA | -2.59 ± 0.49 | –
AUGAAGCAAUAUUACGGAAU | -0.972 ± 0.074 | -0.789 ± 0.091
UAGUAGCAAUAUUACGGAGC | -2.84 ± 0.35 | –
GAGAAGCAAUAUUACGAAUA | -1.88 ± 0.25 | -0.917 ± 0.2
AUUAAGCAAUAUUACGGUUA | -1.18 ± 0.095 | -1.19 ± 0.085
CUGCAGCAAUAUUACGGAAG | -1.56 ± 0.072 | -0.784 ± 0.095
ACAGAGCAAUAUUACGGACA | -2.99 ± 0.3 | -2.45 ± 0.25
GACAAGCAAUAUUACGCCGC | -3.31 ± 0.4 | -2.97 ± 0.43
UUUCAGCAAUAUUACGAAAA | -1.02 ± 0.15 | -0.793 ± 0.15
CCACAGCAAUAUUACGACGU | -3.18 ± 0.18 | -2.52 ± 0.15
ACGGAGCAAUAUUACGUCCU | -1.85 ± 0.13 | -1.27 ± 0.15
CCAGAGCAAUAUUACGAUAU | -2.51 ± 0.23 | -3.19 ± 0.37
UCUUAGCAAUAUUACGCCCA | – | -0.128 ± 0.47
AAUGAGCAAUAUUACGCACU | -1.07 ± 0.11 | 0.105 ± 0.15
AAAAAGCAAUAUUACGAUGG | -2.81 ± 0.12 | -0.923 ± 0.11
CAAUAGCAAUAUUACGGGCG | 0.548 ± 0.093 | 0.28 ± 0.11
UGCUAGCAAUAUUACGUACG | -0.494 ± 0.09 | 0.0248 ± 0.1
UCCCAGCAAUAUUACGCCCU | -2.07 ± 0.15 | -1.03 ± 0.21
CCCCAGCAAUAUUACGCGCU | -3.31 ± 0.12 | -2.45 ± 0.21

Sequence | self-splicing fitness (ln) (30 °C) | self-splicing fitness (ln) (37 °C)
UAAGAGCAAUAUUACGCUCA | -2.37 ± 0.23 | -1.54 ± 0.18
GGCAAGCAAUAUUACGUACG | -0.191 ± 0.058 | 0.428 ± 0.075
AUUUAGCAAUAUUACGCGAU | -3.22 ± 0.33 | -2.49 ± 0.48
CUGCAGCAAUAUUACGGACC | -5.3 ± 0.36 | -2.18 ± 0.31
AGCUAGCAAUAUUACGGAGG | -3.54 ± 0.16 | -1.33 ± 0.14
CGUCAGCAAUAUUACGACUA | -0.58 ± 0.13 | 0.632 ± 0.18
CUCGAGCAAUAUUACGGUGU | -2.83 ± 0.33 | -2.7 ± 0.31
GUGCAGCAAUAUUACGAAAG | -1.58 ± 0.18 | -2.38 ± 0.27
AGUCAGCAAUAUUACGACCC | -0.401 ± 0.19 | -0.72 ± 0.29
CUGCAGCAAUAUUACGACGU | -2.98 ± 0.18 | -2.49 ± 0.29
AUGAAGCAAUAUUACGCGUG | -0.281 ± 0.066 | -0.171 ± 0.099
GUCGAGCAAUAUUACGUUUU | -3.92 ± 0.32 | -2.07 ± 0.19
GAUCAGCAAUAUUACGAGAG | -1.7 ± 0.082 | -0.506 ± 0.082
AUCUAGCAAUAUUACGAGCC | -2.69 ± 0.45 | –
CGCGAGCAAUAUUACGUGAA | -3.57 ± 0.28 | -2.56 ± 0.35
AUCGAGCAAUAUUACGUCCU | -1.18 ± 0.11 | -0.423 ± 0.18
GAUUAGCAAUAUUACGUAUA | -2.65 ± 0.22 | -0.643 ± 0.19
AUUUAGCAAUAUUACGGCAA | -1.05 ± 0.16 | -0.726 ± 0.17
GGAAAGCAAUAUUACGCCGU | -1.5 ± 0.26 | 0.351 ± 0.28
CGAGAGCAAUAUUACGUGCC | – | -2.05 ± 0.38
GCACAGCAAUAUUACGAACU | -0.419 ± 0.056 | -0.167 ± 0.072
CCGGAGCAAUAUUACGUCGG | -3.63 ± 0.21 | -2.82 ± 0.3
CACGAGCAAUAUUACGGCUC | -2.71 ± 0.29 | -1.6 ± 0.28
CGCGAGCAAUAUUACGGUAC | -3.55 ± 0.22 | -3.97 ± 0.42
AGUUAGCAAUAUUACGCCUG | -1.74 ± 0.21 | -1.46 ± 0.25

Reference: the supplement of paper PMC7877785
